{"source": "paper PMC7919418", "about": "(Genes & Development, 2021)", "assay": "SEC-MALS molecular weight / oligomeric state", "assay_type": "physicochemical", "data": [{"substance": "dual-TQT/V Panx peptides: Panx peptide residues 455–480 with both Ctp binding sites (TLYKNAATQTERRTATRDAGTQVRLE)", "values": [{"measurement": "oligomeric state / stoichiometry", "value": "two Ctp homodimers with two dual-TQT/V Panx peptides"}]}]}
